This experiment concerns the target T1, PKC-ε (Homo sapiens, UniProt Q02156).
T1 sequence (Q02156 1-737): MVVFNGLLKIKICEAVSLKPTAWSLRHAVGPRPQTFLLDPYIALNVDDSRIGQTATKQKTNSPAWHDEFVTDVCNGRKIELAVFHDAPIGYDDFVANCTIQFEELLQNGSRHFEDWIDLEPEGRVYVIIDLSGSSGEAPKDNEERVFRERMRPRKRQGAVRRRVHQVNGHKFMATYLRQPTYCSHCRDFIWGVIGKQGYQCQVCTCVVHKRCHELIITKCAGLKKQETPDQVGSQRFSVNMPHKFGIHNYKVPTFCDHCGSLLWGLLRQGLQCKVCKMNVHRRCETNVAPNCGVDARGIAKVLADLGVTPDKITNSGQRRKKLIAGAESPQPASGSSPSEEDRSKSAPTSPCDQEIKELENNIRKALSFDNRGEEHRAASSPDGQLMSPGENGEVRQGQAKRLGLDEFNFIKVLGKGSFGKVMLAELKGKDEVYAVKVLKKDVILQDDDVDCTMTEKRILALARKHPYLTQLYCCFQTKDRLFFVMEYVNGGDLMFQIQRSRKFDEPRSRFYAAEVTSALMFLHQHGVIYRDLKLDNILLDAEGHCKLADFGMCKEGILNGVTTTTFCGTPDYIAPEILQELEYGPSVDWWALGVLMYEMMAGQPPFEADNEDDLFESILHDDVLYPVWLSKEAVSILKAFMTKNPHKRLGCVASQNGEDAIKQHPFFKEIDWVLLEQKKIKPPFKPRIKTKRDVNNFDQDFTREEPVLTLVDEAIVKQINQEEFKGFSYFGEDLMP
Kind of experiment: ELISA-based competitive binding assay with purified PKC isoform. The following applies: for inhibition at 50 µM / inhibition at 100 µM / inhibition at 200 µM / calculated binding capacity (100-% n) after subtraction of the DMSO apparent binding capacity: purified PKC-ε; for inhibition at 50 µM / inhibition at 100 µM / inhibition at 200 µM: read-out: calculated binding capacity (100-% n) after subtraction of the DMSO apparent binding capacity; for Affinity for PKC isoform ε: Purified isoform, Table 20. Also noted: key to Affinity for PKC isoform ε: —: no detectable affinity; Low to very low affinity at 10X or 20X or both PRE concentrations in at least one cell line in the cell extract assay; Low affinity in purified isoform assay.; Moderate affinity at 10X or 20X or both PRE concentrations in at least one cell line in the cell extract assay.; High affinity at 10X or 20X or both PRE concentrations in at least one cell line in the cell extract assay; High affinity in purified isoform assay. On the procedure:
Peptides PRE 1, 2, 3, 4, 5, 6, 7, 8, 9, 10, 11, 12 and 13 (see Table 3) were tested for their ability to interfere with binding of PKC isoform-specific antibodies to their target PKC isoforms using a competitive binding assay and purified PKC isoforms.
Procedure: Competitive binding was assessed using a 96 well plate ELISA-based assay as described below.
Greiner 96 well ELISA plates were coated with the appropriate PKC isoform diluted in PBSN (PBS with Calcium/Magnesium+0.05% Sodium azide w/w). 50 μL/well at 250 ng/mL was used. Control wells contained PBSN only. Plates were incubated overnight at 4° C.
The plates were washed 3 times with 200 μL of dH2O per well, then 100 μL of blocking solution was added per well and the plate incubated for 1 h at 37° C. The washing steps with dH2O were repeated and 50 μL of the appropriate PRE solution (PRE stock solution [20 mM in DMSO] diluted in PBSN) was added and the plate incubated for 1 h at room temperature.
After incubation, 5 μL of 1.1:400 anti-PKC (isoform specific antibody) was added per well (to provide a final concentration of 1:4000). For PKC-epsilon, 1.1:800 dilution was used and for PKC-zeta a 1.1:100 dilution was used due to high and low binding affinity, respectively. The plates were then incubated 1 h at room temperature, followed by washing with dH2O as described above.
50 μL of 1:1000 dilution of Alkaline Phosphatase (AP) conjugated antibody (anti-rabbit for all except zeta, which was anti-goat) was then added and the plate incubated for 1 h at room temperature. Washing with dH2O was then repeated. Finally, 100 μL of pNPP solution in pNPP buffer (2 mM MgCl2, 100 mM Sodium bicarbonate in water, pH 9.8) was added to all wells and incubated for 8 minutes for α, βI, βII ε, and ζ, or for 15-20 mins for […] (until sufficient coloration is observed). The reaction was stopped by addition of Stop solution (2N NaOH) and the absorbance at 405 nm was read on a Galaxy Plate reader.
Controls were PKC without PRE; blank controls, and controls containing the final concentrations of DMSO used for solubilizing the PREs. The non-specific binding capacity related to DMSO was also measured.
The antibodies used were as follows: anti-PKC α (Cat. No. SC-208); anti-PKC βI (Cat. No. SC-209); anti-PKC βII (Cat. No. SC-210); anti-PKC δ (Cat. No. SC-213); anti-PKC ε (Cat. No. SC-214); anti-PKC ζ (Cat. No. SC-216-G) (all from Santa Cruz Biotechnology, Inc.). The AP-conjugated antibodies were obtained from Jackson Immuno Research Laboratories (West Grove, Pa.).
Calculations: The OD values measured at 405 nm represent the free PKC coated per well.
OD405 PKC alone−Blank OD405 of each sample=OD405 coated isoform
(OD405 of sample X/OD405 coated isoform)×100=% n that represents the percentage of X binding compared to control.
100-% n measures the relative binding capacity of X towards the tested isoform.
The apparent binding capacity of the DMSO samples was then subtracted from X binding capacity.
All measurements were made in triplicate and the values in the table represent the averaged calculated binding capacity values after subtraction of the DMSO apparent binding capacity (averaged from 12 values, respectively 10.80, 11.20 and 16.40 corresponding to the concentrations of DMSO used to dilute the […] at 200, 100 and 50 μM respectively). The results allow for quantitative comparison of the binding capacity of each PRE towards an individual isoform within each table, but not among isoforms due to differences in sensitivity of the specific antibodies toward the secondary antibody. This applies particularly to PKC-delta. As noted above, the colour development duration was increased 2-3 times and, as a result, the OD405 measurements may be overestimated for this isoform.

For Ac-AKGIQEVKGGDAQNLIGISI-NH2 [PRE 3], the “Affinity for PKC isoform ε” value is “H”. In addition, where the note is “PRE 50 μM”, the inhibition at 50 µM was 34%. In addition, the inhibition at 100 µM (PRE 100 μM) was 31.5%. Further, where the note is “PRE 200 μM”, the inhibition at 200 µM was 31%. Further, the “targeting of PKC-ε” value (purified isoform, Tables 14-19) is recorded as “targeted most strongly”.

On to Ac-AKGIQEVKGGKDAQNLIGISI-NH2 [PRE 5], for which the “Affinity for PKC isoform ε” value is “—”. Besides, the inhibition at 50 µM (PRE 50 μM) is 0%. The inhibition at 100 µM (PRE 100 μM) is 0%. Also, the inhibition at 200 µM (PRE 200 μM) is 1.8%.

For the substance Ac-ISIGILNQADK-NH2 [PRE 10], the “Affinity for PKC isoform ε” value was “—”. The “calculated binding capacity (100-% n) after subtraction of the DMSO apparent binding capacity” value (“calculated binding capacity (100-% n)” for short) (PRE 50 μM) is listed as 0.91. For the same substance, the “calculated binding capacity (100-% n)” value (PRE 200 μM) is 1.75.

As for Ac-ISIGILQNADK-NH2 [PRE 7], the “Affinity for PKC isoform ε” value is “L”.

Take Ac-KDANQLIGISI-NH2 [PRE 6]: the “Affinity for PKC isoform ε” value is recorded as “—”. In addition, the “calculated binding capacity (100-% n)” value (PRE 50 μM) is on record as 2.61. Moreover, the “calculated binding capacity (100-% n)” value (PRE 100 μM) is listed as 0.46.

Regarding Ac-KDAQNLI-NH2 [PRE 12], the “Affinity for PKC isoform ε” value is reported as “—”.

For the substance “Ac-KDAQNLIGISI-NH2 [PRE 4, Ac-KDAQNLIGISI-NH2]”, the “Affinity for PKC isoform ε” value is “—”. Besides, the inhibition at 50 µM (PRE 50 μM) is 0%. The inhibition at 100 µM (PRE 100 μM) is 0%. For the same substance, for the setting “PRE 200 μM”, the inhibition at 200 µM was 2.58%.

In the case of Ac-RDAQNLI-NH2 [PRE 13], the “Affinity for PKC isoform ε” value is “—”.

Ac-RDAQNLIGISI-NH2 [PRE 11]: the “Affinity for PKC isoform ε” value was “L”.

As to Ac-isigilgnadk-NH2 [PRE 9], the “Affinity for PKC isoform ε” value is given as “L”. Also, the “calculated binding capacity (100-% n)” value (PRE 50 μM) was 16.35. Moreover, where the note is “PRE 100 μM”, the “calculated binding capacity (100-% n)” value is 8.53.

For the substance ILEDKGGDAQNLIGISI [PRE 8], the “Affinity for PKC isoform ε” value is “—”.

RRKKGGKDFVVKR [PRE 1]: the “Affinity for PKC isoform ε” value was “—”. In addition, under “PRE 100 μM”, the “calculated binding capacity (100-% n)” value is 5.47. Further, for the setting “PRE 200 μM”, the “calculated binding capacity (100-% n)” value was 0.83.

The record behind these values is patent US20100041597A1, “PEPTIDES TARGETED TO PROTEIN KINASE C ISOFORMS AND USES THEREOF” (priority 2005, published 2010).
